Test results as given in patent publication US20080090254.

target: GST-poly(Glu, Tyr) substrate
Sequence (chain, as listed by the source): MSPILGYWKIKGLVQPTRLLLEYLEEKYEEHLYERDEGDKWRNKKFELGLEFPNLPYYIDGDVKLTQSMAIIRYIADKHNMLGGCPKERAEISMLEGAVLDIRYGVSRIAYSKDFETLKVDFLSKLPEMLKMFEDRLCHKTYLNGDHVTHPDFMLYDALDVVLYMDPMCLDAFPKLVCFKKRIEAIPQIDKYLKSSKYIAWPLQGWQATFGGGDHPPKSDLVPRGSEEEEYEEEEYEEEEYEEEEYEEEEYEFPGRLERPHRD

| Protein | phosphorylation of the substrate, Western blotting with anti-phosphotyrosine |
| --- | --- |
| PDGF Receptor β Kinase (protein) RYEIRWKVIESVSSDGHEYIYVDPMQLPYDSTWELPRDQLVLGRTLGSGAFGQVVEATAHGLSHSQATMKVAVKMLKSTARSSEKQALMSELKIMSHLGPHLNVVNLLGACTKGGPIYIITEYCRYGDLVDYLHRNKHTFLQHHSDKRRPPSAELYSNALPVGLPLPSHVSLTGESDGGYMDMSKDESVDYVPMLDMKGDVKYADIESSNYMAPYDNYVPSAPERTCRATLINESPVLSYMDLVGFSYQVANGMEFLASKNCVHRDLAARNVLICEGKLVKICDFGLARDIMRDSNYISKGSTFLPLKWMAPESIFNSLYTTLSDVWSFGILLWEIFTLGGTPYPELPMNEQFYNAIKRGYRMAQPAHASDEIYEIMQKCWEEKFEIRPPFSQLVLLLERLLGEGYKKKYQQVDEEFLRSDHPAILRSQARLPGFHGLRSPLDTSSVLYTAVQPNEGDNDYIIPLPDPKPEVADEGPLEGSPSLASSTLNEVNTSSTISCDSPLEPQDEPEPEPQLELQVEPEPELEQLPDSGCPAPRAEAEDSFL | At + of all (i to vii) of FIG. 1, a single band was seen at positions where the phosphorylated GST-poly (Glu, Tyr) substrate appears |
| VEGF Receptor 1 Kinase (protein) RKMKRSSSEIKTDYLSIIMDPDEVPLDEQCERLPYDASKWEFARERLKLGKSLGRGAFGKVVQASAFGIKKSPTCRTVAVKMLKEGATASEYKALMTELKILTHIGHHLNVVNLLGACTKQGGPLMVIVEYCKYGNLSNYLKSKRDLFFLNKDAALHMEPKKEKMEPGLEQGKKPRLDSVTSSESFASSGFQEDKSLSDVEEEEDSDGFYKEPITMEDLISYSFQVARGMEFLSSRKCIHRDLAARNILLSENNVVKICDFGLARDIYKNPDYVRKGDTRLPLKWMAPESIFDKIYSTKSDVWSYGVLLWEIFSLGGSPYPGVQMDEDFCSRLREGMRMRAPEYSTPEIYQIMLDCWHRDPKERPRFAELVEKLGDLLQANVQQDGKDYIPINAILTGNSGFTYSTPAFSEDFFKESISAPKFNSGSSDDVRYVNAFKFMSLERIKTFEELLPNATSMFDDYQGDSSTLLASPMLKRFTWTDSKPKASLKIDLRVTSKSKESGLSDVSRPSFCHSSCGHVSEGKRRFTYDHAELERKIACCSPPPDYNSVVLYSTPPI | At + of all (i to vii) of FIG. 1, a single band was seen at positions where the phosphorylated GST-poly (Glu, Tyr) substrate appears |
| ErbB4 Kinase (protein) RRKSIKKKRALRRFLETELVEPLTPSGTAPNQAQLRILKETELKRVKVLGSGAFGTVYKGIWVPEGETVKIPVAIKILNETTGPKANVEFMDEALIMASMDHPHLVRLLGVCLSPTIQLVTQLMPHGCLLEYVHEHKDNIGSQLLLNWCVQIAKGMMYLEERRLVHRDLAARNVLVKSPNHVKITDFGLARLLEGDEKEYNADGGKMPIKWMALECIHYRKFTHQSDVWSYGVTIWELMTFGGKPYDGIPTREIPDLLEKGERLPQPPICTIDVYMVMVKCWMIDADSRPKFKELAAEFSRMARDPQRYLVIQGDDRMKLPSPNDSKFFQNLLDEEDLEDMMDAEEYLVPQAFNIPPPIYTSRARIDSNRSEIGHSPPPAYTPMSGNQFVYRDGGFAAEQGVSVPYRAPTSTIPEAPVAQGATAEIFDDSCCNGTLRKPVAPHVQEDSSTQRYSADPTVFAPERSPRGELDEEGYMTPMRDKPKQEYLNPVEENPFVSRRKNGDLQALDNPEYHNASNGPPKAEDEYVNEPLYLNTFANTLGKAEYLKNNILSMPEKAKKAFDNPDYWNHSLPPRSTLQHPDYLQEYSTKYFYKQNGRIRPIVAENPEYLSEFSLKPGTVLPPPPYRHRNTVV | At + of all (i to vii) of FIG. 1, a single band was seen at positions where the phosphorylated GST-poly (Glu, Tyr) substrate appears |
| IGF-1Receptor Kinase (protein) RKRNNSRLGNGVLYASVNPEYFSAADVYVPDEWEVAREKITMSRELGQGSFGMVYEGVAKGVVKDEPETRVAIKTVNEAASMRERIEFLNEASVMKEFNCHHVVRLLGVVSQGQPTLVIMELMTRGDLKSYLRSLRPEMENNPVLAPPSLSKMIQMAGEIADGMAYLNANKFVHRDLAARNCMVAEDFTVKIGDFGMTRDIYETDYYRKGGKGLLPVRWMSPESLKDGVFTTYSDVWSFGVVLWEIATLAEQPYQGLSNEQVLRFVMEGGLLDKPDNCPDMLFELMRMCWQYNPKMRPSFLEIISSIKEEMEPGFREVSFYYSEENKLPEPEELDLEPENMESVPLDPSASSSSLPLPDRHSGHKAENGPGPGVLVLRASFDERQPYAHMNGGRKNERALPLPQSSTC | At + of all (i to vii) of FIG. 1, a single band was seen at positions where the phosphorylated GST-poly (Glu, Tyr) substrate appears |
